Results: patent publication US20090286738A1 (ST GEORGE S ENTERPRISES, published 2009)
Non-standard residues stand in square brackets, D forms with d. No end group written: not given here.

Experiments:
[1] = molecular target: T1, PBX proteins of murine B16 melanoma cells (mouse (murine B16 melanoma cells), UniProt P41778 1-430, limits assumed); assay: cell-based or functional assay
T1 sequence (looked up): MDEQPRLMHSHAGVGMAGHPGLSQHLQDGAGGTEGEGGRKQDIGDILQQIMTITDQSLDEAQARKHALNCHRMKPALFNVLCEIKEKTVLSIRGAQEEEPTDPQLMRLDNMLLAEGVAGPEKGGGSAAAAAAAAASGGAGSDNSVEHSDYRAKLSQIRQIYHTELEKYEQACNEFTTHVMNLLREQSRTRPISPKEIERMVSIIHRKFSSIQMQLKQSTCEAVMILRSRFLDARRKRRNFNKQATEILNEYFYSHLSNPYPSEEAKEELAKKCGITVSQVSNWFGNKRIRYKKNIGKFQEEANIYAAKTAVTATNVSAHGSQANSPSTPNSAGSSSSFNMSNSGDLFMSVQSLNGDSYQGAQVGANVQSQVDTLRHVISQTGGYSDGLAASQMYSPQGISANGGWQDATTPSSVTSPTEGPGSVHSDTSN

[2] = molecular target: PBX proteins of human cancer cell lines (A549, LNCaP, SK-OV3, A498, J82) (human (human cell lines)); assay: cell-based or functional assay

IC50 (µM), MTT assay, B16F10 [1]: 20 µM
IC50 (µM), MTT assay, A498 [2]: 24 µM
IC50 (µM), MTT assay, A549 [2]: 19 µM
IC50 (µM), MTT assay, J82 [2]: 22 µM
IC50 (µM), MTT assay, LNCaP [2]: 21 µM
IC50 (µM), MTT assay, SK-OV3 [2]: 22 µM
Binder: [dW]YPWMKKHHRRRRRRRR[dR] [HXArg9(2D)]
